Source: article PMC2783309 (Experimental cell research, 2009)

Target: Biotinylated Clostridium difficile toxin A (Clostridium difficile strain VPI 10463, UniProt P16154 1-2710)
Assay: pull-down

Chain of Biotinylated Clostridium difficile toxin A (P16154 whole entry): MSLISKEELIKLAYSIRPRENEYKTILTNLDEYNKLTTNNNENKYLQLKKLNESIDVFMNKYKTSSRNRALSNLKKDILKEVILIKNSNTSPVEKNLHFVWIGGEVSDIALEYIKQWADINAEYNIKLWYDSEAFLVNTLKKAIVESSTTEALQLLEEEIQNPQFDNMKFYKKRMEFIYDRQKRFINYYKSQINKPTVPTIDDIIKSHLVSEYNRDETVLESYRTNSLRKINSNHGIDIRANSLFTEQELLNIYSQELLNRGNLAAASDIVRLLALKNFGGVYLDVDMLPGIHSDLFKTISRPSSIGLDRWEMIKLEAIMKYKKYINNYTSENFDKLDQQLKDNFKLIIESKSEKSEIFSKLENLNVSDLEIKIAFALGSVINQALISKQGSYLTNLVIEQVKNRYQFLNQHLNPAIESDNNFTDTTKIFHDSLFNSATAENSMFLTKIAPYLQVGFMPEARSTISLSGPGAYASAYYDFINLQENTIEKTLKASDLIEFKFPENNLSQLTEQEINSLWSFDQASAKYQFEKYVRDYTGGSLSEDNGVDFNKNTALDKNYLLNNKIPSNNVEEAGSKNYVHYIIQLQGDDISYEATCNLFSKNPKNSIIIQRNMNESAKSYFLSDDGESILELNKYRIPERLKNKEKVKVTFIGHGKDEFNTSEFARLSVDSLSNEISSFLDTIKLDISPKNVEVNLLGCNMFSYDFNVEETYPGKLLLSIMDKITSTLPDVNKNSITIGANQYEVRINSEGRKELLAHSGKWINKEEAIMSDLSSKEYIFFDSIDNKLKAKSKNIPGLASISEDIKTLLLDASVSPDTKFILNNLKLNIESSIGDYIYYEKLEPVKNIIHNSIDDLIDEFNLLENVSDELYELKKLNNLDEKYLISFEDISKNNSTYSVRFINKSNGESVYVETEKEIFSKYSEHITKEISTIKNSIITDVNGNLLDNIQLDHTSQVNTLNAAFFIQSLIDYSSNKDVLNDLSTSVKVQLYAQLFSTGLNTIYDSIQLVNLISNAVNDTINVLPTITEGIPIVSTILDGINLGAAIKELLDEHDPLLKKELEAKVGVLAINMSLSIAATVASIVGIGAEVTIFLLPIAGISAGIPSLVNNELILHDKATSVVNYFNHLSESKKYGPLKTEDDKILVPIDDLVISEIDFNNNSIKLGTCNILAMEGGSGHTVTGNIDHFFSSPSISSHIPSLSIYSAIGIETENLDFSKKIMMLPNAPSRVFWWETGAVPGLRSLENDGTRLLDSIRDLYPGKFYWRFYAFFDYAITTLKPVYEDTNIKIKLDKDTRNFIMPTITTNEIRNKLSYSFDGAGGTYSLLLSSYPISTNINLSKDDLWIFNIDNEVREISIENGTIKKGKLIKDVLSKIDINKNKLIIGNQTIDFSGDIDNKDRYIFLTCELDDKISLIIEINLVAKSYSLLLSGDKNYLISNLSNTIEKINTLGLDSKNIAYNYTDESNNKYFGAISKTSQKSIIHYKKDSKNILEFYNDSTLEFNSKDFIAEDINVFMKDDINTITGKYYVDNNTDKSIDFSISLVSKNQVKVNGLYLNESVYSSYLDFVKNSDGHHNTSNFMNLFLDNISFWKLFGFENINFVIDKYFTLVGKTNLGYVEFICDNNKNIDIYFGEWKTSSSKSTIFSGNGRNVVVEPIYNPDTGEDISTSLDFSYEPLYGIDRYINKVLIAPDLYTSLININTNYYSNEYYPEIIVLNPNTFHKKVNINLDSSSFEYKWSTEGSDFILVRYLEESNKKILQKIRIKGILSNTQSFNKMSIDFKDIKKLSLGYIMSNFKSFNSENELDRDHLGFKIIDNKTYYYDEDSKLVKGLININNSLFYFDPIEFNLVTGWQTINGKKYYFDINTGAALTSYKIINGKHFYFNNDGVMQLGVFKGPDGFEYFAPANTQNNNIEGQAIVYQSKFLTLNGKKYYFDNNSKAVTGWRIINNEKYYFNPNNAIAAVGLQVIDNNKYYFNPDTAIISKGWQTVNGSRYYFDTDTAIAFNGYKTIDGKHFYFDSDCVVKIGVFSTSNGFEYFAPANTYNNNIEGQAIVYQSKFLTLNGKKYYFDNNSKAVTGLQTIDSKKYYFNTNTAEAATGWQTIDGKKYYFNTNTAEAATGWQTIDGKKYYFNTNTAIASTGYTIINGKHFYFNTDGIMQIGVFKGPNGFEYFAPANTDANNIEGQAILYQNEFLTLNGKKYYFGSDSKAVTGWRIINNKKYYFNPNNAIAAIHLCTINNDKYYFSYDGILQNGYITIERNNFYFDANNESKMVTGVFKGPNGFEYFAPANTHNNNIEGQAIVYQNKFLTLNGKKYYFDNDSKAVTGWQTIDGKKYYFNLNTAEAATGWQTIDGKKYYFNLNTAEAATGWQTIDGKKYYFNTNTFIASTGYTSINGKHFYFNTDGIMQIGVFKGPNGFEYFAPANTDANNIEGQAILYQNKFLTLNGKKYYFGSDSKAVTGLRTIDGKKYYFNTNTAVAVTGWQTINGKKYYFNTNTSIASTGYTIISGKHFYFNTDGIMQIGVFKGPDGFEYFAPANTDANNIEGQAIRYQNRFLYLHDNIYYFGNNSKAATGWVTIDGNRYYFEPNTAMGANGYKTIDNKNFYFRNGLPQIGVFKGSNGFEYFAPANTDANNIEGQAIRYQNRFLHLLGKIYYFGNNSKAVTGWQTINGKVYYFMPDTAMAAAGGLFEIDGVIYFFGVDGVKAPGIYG

B1: GST-Src catalytic domain (domain or fragment, UniProt P12931-1 226-536, looked up)
chain: LQQLVAYYSKHADGLCHRLTTVCPTSKPQTQGLAKDAWEIPRESLRLEVKLGQGCFGEVWMGTWNGTTRVAIKTLKPGTMSPEAFLQEAQVMKKLRHEKLVQLYAVVSEEPIYIVTEYMSKGSLLDFLKGETGKYLRLPQLVDMAAQIASGMAYVERMNYVHRDLRAANILVGENLVCKVADFGLARLIEDNEYTARQGAKFPIKWTAPEAALYGRFTIKSDVWSFGILLTELTTKGRVPYPGMVNREVLDQVERGYRMPCPPECPESLHDLMCQCWRKEPEERPTFEYLQAFLEDYFTSTEPQYQPGENL
binding result: binds
